Patent US20250313631A1 (HUMMINGBIRD BIOSCIENCE PTE, published 2025)
Where a chain is given by its changes, count along the chain named. Read-outs that look alike come from different tables or passages of the source.

Legend:
[1] = target: T1, mouse FcRn (His-tagged, Sino Biological CT009-H08H) (mouse, UniProt Q61559 22-297); assay: BLI summary table, mFcRn, pH 5.8
T1 construct: also called mFcRn
T1 sequence (looked up): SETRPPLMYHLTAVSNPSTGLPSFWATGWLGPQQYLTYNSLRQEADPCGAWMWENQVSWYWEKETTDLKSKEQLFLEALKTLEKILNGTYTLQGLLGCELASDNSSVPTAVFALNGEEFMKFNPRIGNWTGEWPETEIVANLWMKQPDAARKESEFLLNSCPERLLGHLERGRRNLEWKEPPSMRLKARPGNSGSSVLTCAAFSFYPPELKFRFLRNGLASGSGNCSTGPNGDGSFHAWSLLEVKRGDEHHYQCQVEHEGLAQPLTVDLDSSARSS

[2] = target: T1, mouse FcRn (His-tagged, Sino Biological …); assay: BLI summary table, mFcRn, pH 5.8; remark: listed apart in the source
[3] = target: T1, mouse FcRn (His-tagged, Sino Biological …); assay: BLI summary table, mFcRn, pH 5.8; remark: listed apart in the source
[4] = target: T2, mouse FcγRIV (His-tagged, Sino Biological 50036-M08H) (mouse, UniProt A0A0B4J1G0 21-203); assay: BLI (Octet QK384): His-tagged receptor on anti-Penta-HIS biosensor, antibody as analyte, PBS pH 7.2
T2 construct: also called mFcγRIV; not shown: the histidine tag (and any linker) of the Sino Biological construct 50036-M08H
T2 sequence: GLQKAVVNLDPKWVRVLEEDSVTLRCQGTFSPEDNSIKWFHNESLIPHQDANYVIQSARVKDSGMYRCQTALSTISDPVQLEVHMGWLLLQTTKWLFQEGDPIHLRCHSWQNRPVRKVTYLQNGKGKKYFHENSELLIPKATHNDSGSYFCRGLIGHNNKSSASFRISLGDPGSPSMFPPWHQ

[5] = target: T3, mouse FcγRIII (His-tagged, Sino Biological 50326-M08H) (mouse, UniProt P08508 31-215); assay: as above
T3 construct: also called mFcγRIII
T3 sequence (looked up): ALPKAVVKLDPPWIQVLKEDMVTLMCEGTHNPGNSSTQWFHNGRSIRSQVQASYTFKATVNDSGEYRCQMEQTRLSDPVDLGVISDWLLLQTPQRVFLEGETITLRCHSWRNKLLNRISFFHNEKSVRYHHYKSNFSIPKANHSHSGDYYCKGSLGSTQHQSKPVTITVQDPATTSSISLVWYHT

[6] = target: T4, mouse FcγRIIb (His-tagged, Sino Biological 50030-M08H) (mouse, UniProt P08101 30-217); assay: as above
T4 construct: also called mFcγRIIb
T4 sequence (looked up): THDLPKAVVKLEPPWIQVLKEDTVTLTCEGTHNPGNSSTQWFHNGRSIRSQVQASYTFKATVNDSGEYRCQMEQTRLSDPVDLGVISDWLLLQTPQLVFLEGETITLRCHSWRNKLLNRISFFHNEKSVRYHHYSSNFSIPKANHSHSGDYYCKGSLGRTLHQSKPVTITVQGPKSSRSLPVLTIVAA

[7] = target: T1, mouse FcRn (His-tagged, Sino Biological …); assay: BLI (Octet QK384): His-tagged mFcRn on anti-Penta-HIS biosensor, antibody as analyte, PBS pH 5.8, global 1:1 fit
[8] = target: T2, mouse FcγRIV (His-tagged, Sino …); assay: BLI summary table, mFcgRIV, pH 7.2
[9] = target: T4, mouse FcγRIIb (His-tagged, Sino …); assay: BLI (Octet QK384): His-tagged receptor on anti-Penta-HIS biosensor, antibody as analyte, PBS pH 7.2; remark: listed apart in the source
[10] = target: T1, mouse FcRn (His-tagged, Sino Biological …); assay: BLI (Octet QK384): His-tagged mFcRn on anti-Penta-HIS biosensor, antibody as analyte, PBS pH 5.8, global 1:1 fit; remark: listed apart in the source
[11] = target: T2, mouse FcγRIV (His-tagged, Sino …); assay: BLI (Octet QK384): His-tagged receptor on anti-Penta-HIS biosensor, antibody as analyte, PBS pH 7.2; kon = ND and KD = ND are printed beside it

B1: 4M2-C12 mIgG2a LALA PG (antibody)
heavy: EVKLVESGPGLVKPSQSLSLTCTVTGYSITSDYAWNWIRQFPGNKLEWMGYITYSGNISYNPSLRSRISITRDTSKNQFFLQLNSVTPEDTATYSCARSLYYPWYFDVWGAGTTVTVSSAKTTAPSVYPLAPVCGDTTGSSVTLGCLVKGYFPEPVTLTWNSGSLSSGVHTFPAVLQSDLYTLSSSVTVTSSTWPSQSITCNVAHPASSTKVDKKIEPRGPTIKPCPPCKCPAPNAAGGPSVFIFPPKIKDVLMISLSPIVTCVVVDVSEDDPDVQISWFVNNVEVHTAQTQTHREDYNSTLRVVSALPIQHQDWMSGKEFKCKVNNKDLGAPIERTISKPKGSVRAPQVYVLPPPEEEMTKKQVTLTCMVTDFMPEDIYVEWTNNGKTELNYKNTEPVLDSDGSYFMYSKLRVEKKNWVERNSYSCSVVHEGLHNHHTTKSFSRTPGK
light: DIVITQTPAILSTSPGEKVTMTCRASSSVGYIHWYQQKPGSSPKPWIYATSNLASGVPARFSGSGSGTSNSLTITRVEAEDAATYYCQQWSSYPPITFGGGTKLEVKRADAAPTVSIFPPSSEQLTSGGASVVCFLNNFYPKDINVKWKIDGSERQNGVLNSWTDQDSKDSTYSMSSTLTLTKDEYERHNSYTCEATHKTSTSPIVKSFNRNEC
kon [1]: 270000 M⁻¹ s⁻¹
koff [2]: 0.0097 s⁻¹
Kd [3]: 35.8 nM
binding result [4]: no binding
binding result [5]: no binding
binding result [6]: no binding
Kd [7]: 35.8 nM
koff [7]: 0.0097 s⁻¹
kon [7]: 270000 M⁻¹ s⁻¹

B2: 4M2-C12 mIgG2a NQ (antibody)
heavy chain: B1 heavy with A236L, A237L, N299Q, G331P
light chain: B1 light
kon [1]: 180000 M⁻¹ s⁻¹
koff [2]: 0.0075 s⁻¹
Kd [3]: 42.5 nM
koff [8]: 0.348 s⁻¹
binding result [9]: no binding
Kd [10]: 42.5 nM
koff [10]: 0.0075 s⁻¹
kon [10]: 180000 M⁻¹ s⁻¹
koff [11]: 0.348 s⁻¹
